Where two headings read alike, the source gives them in different places.
Columns and labels:
[1] = target: HLA-A*0201 (purified HLA class I molecule) (human); assay: competition with 125I-labelled standard peptide for purified HLA, gel filtration
[2] = target: HLA-A*0201 (human); assay: as above; conditions: for binding affinity ratio: scale: ratio
[3] = target: HLA-A*0206 (human); assay: as above
[4] = target: HLA-A*0203 (human); assay: as above; conditions: for binding affinity ratio: scale: ratio
[5] = target: HLA-A*0202 (human); assay: as above
[6] = target: HLA-A*0201 (human); assay: competition with 125I-labelled standard peptide for purified HLA, gel filtration; ratio = IC50 standard / IC50 test peptide
[7] = target: HLA-A*0201 (human); assay: competition binding to purified HLA, 125I-labelled standard peptide, gel filtration; ratio = IC50 standard / IC50 test peptide
[8] = target: HLA-A*0301 (human); assay: competition with 125I-labelled standard peptide for purified HLA, gel filtration
[9] = remark: other sources report otherwise

B1: PSA peptide … (position 50, 11 amino acids) (peptide)
peptide: LVHPQWVLTAA
modifications: not checked
- binding affinity ratio (IC50 of standard peptide / IC50 of test peptide) [1]: 0.0001

B2: Kallikrein 153 peptide YASGWGSI (peptide)
peptide: YASGWGSI
modifications: not checked
- binding affinity ratio (IC50 of the standard peptide / IC50 of the test peptide) [2]: -0.0001
- binding affinity ratio (IC50 of the standard peptide / IC50 of the test peptide) [3]: 0.0003
- binding affinity ratio (IC50 of the standard peptide / IC50 of the test peptide) [4]: 0.0003
- binding affinity ratio (IC50 of the standard peptide / IC50 of the test peptide) [5]: 0.0009

B3: Kallikrein 102 … (peptide)
peptide: NMSLLKHQSL
modifications: not checked
- binding affinity ratio (IC50 of standard peptide / IC50 of test peptide) [4, 9]: 0.04

B4: PAP peptide …, position 276, 9 amino acids (peptide)
peptide: QIPSYKKLI
modifications: not checked
- binding affinity ratio (ratio to standard peptide) [6]: 0.0002

B5: … (PAP, position 201, 9 amino acids) (peptide)
peptide: DLFGIWSKV
modifications: not checked
- binding affinity ratio [7]: 0.0002

B6: PSA peptide …, position 87, 10 amino acids (peptide)
peptide: QVSHSFPHPL
modifications: not checked
- binding affinity ratio (ratio to standard peptide) [6]: 0.0001

B7: PAP 81 peptide … (peptide)
peptide: LGEYIRKRY
modifications: not checked
- binding affinity ratio (IC50 of standard peptide / IC50 of test peptide) [8, 9]: 0.0002

B8: PSM peptide … (position 216, 10 amino acids) (peptide)
peptide: NAQLAGAKGV
modifications: not checked
- binding affinity ratio (IC50 of standard peptide / IC50 of test peptide) [1]: 0.0002

B9: … (Kallikrein, position 137, 11 amino acids) (peptide)
peptide: KVLGLPTQEPA
modifications: not checked
- binding affinity ratio [2]: 0.0001
- binding affinity ratio [4]: 0.0009

B10: … (PSA, position 171, 9 amino acids) (peptide)
peptide: DLHVISNDV
modifications: not checked
- binding affinity ratio [7]: 0.0003

B11: PSA peptide …, position 182, 11 amino acids (peptide)
peptide: QVHPQKVTKFM
modifications: not checked
- binding affinity ratio (ratio to standard peptide) [6]: 0.0001

B12: PAP peptide … (position 298, 10 amino acids) (peptide)
peptide: MALDVYNGLL
modifications: not checked
- binding affinity ratio (IC50 of standard peptide / IC50 of test peptide) [1]: 0.001

B13: PAP 81 peptide … (peptide)
peptide: LGEYIRKRYR
modifications: not checked
- binding affinity ratio (IC50 of standard peptide / IC50 of test peptide) [8]: 0.0003

B14: peptide 1389.20 (PSM.27.V9) (peptide)
peptide: VLAGGFFLV
modifications: not checked
- IC50 [2]: 26 nM
- IC50 [3]: 57 nM
- IC50 [4]: 5 nM
- IC50 [5]: 0.4 nM

B15: DLPTQEPA (PSA, position 136, 8 amino acids) (peptide)
peptide: DLPTQEPA
modifications: not checked
- binding affinity ratio [7]: 0.0001

B16: PSM peptide … (position 3, 9 amino acids) (peptide)
peptide: NLLHETDSA
modifications: not checked
- binding affinity ratio (IC50 of standard peptide / IC50 of test peptide) [1]: 0.0001

B17: PAP peptide …, position 72, 10 amino acids (peptide)
peptide: QLGMEQHYEL
modifications: not checked
- binding affinity ratio (ratio to standard peptide) [6]: 0.0003

B18: Kallikrein (hK2) peptide LVHPQWVL (position 54, 8 amino acids) (peptide)
peptide: LVHPQWVL
modifications: not checked
- binding affinity ratio (IC50 of standard peptide / IC50 of test peptide) [1]: 0.0001

B19: PAP peptide … (position 232, 10 amino acids) (peptide)
peptide: MTKLRELSEL
modifications: not checked
- binding affinity ratio (IC50 of standard peptide / IC50 of test peptide) [1]: 0.0002

B20: PSM 528 peptide … (peptide)
peptide: LGIASGRAR
modifications: not checked
- binding affinity ratio (IC50 of standard peptide / IC50 of test peptide) [8]: 0.0006

B21: peptide 1419.27 (PSA.3.V11) (peptide)
peptide: FLTLSVTWIGV
modifications: not checked
- IC50 [2]: 6.8 nM
- IC50 [3]: 65 nM
- IC50 [4]: 18 nM
- IC50 [5]: 3 nM

B22: PSA peptide … (position 50, 9 amino acids) (peptide)
peptide: LVHPQWVLT
modifications: not checked
- binding affinity ratio (IC50 of standard peptide / IC50 of test peptide) [1]: 0.0001

B23: … (PSA, position 99) (peptide)
peptide: MSLLKNRFLR
modifications: not checked
- binding affinity ratio (IC50 of standard peptide / IC50 of test peptide) [8]: 0.007

B24: peptide 1126.01 (PSM.663) (peptide)
peptide: MMNDQLMFL
modifications: not checked
- IC50 [3]: 7.6 nM
- IC50 [4]: 1.7 nM
- IC50 [5]: 0.8 nM

B25: … (PSA, position 130, 10 amino acids) (peptide)
peptide: DAVKVMDLPT
modifications: not checked
- binding affinity ratio [7]: 0.0001

B26: PSA peptide …, position 35, 10 amino acids (peptide)
peptide: QVLVASRGRA
modifications: not checked
- binding affinity ratio (ratio to standard peptide) [6]: 0.0001

B27: Kallikrein (hK2) peptide … (position 54, 9 amino acids) (peptide)
peptide: LVHPQWVLT
modifications: not checked
- binding affinity ratio (IC50 of standard peptide / IC50 of test peptide) [1]: 0.0001

B28: PSM peptide … (position 260, 10 amino acids) (peptide)
peptide: NLNGAGDPLT
modifications: not checked
- binding affinity ratio (IC50 of standard peptide / IC50 of test peptide) [1]: 0.0002

B29: PSA peptide …, position 138, 9 amino acids (peptide)
peptide: PTQEPALGT
modifications: not checked
- binding affinity ratio (ratio to standard peptide) [6]: 0.0001

B30: PAP peptide …, position 101, 9 amino acids (peptide)
peptide: QVYIRSTDV
modifications: not checked
- binding affinity ratio (ratio to standard peptide) [6]: 0.0002

B31: … (PSM, position 491) (peptide)
peptide: KSLYESWTK
modifications: not checked
- binding affinity ratio (IC50 of standard peptide / IC50 of test peptide) [8]: 0.4

B32: PAP peptide …, position 297, 10 amino acids (peptide)
peptide: QMALDVYNGL
modifications: not checked
- binding affinity ratio (ratio to standard peptide) [6]: 0.0002

B33: Kallikrein 129 … (peptide)
peptide: PAKITDVVKVL
modifications: not checked
- binding affinity ratio (IC50 of standard peptide / IC50 of test peptide) [2]: 0.0002
- binding affinity ratio (IC50 of standard peptide / IC50 of test peptide) [3]: -0.0001
- binding affinity ratio (IC50 of standard peptide / IC50 of test peptide) [4]: 0.0017
- binding affinity ratio (IC50 of standard peptide / IC50 of test peptide) [5]: 0.0006

B34: peptide 1419.24 (PSA.166.V10) (peptide)
peptide: KLQCVDLHVV
modifications: not checked
- IC50 [4, 9]: 9.5 nM

B35: PSA peptide … (position 203, 11 amino acids) (peptide)
peptide: STCSGDSGGPL
modifications: not checked
- binding affinity ratio [2, 9]: 0.0005
- binding affinity ratio ([3]; remark: other sources report otherwise, scale: ratio): 0.0002
- binding affinity ratio [4, 9]: 0.0092

B36: Kallikrein 243 peptide … (peptide)
peptide: YTKVVHYRKWI
modifications: not checked
- binding affinity ratio (IC50 of the standard peptide / IC50 of the test peptide) [2]: 0.0001
- binding affinity ratio (IC50 of the standard peptide / IC50 of the test peptide) [3]: -0.0001
- binding affinity ratio (IC50 of the standard peptide / IC50 of the test peptide) [5]: -0.0001

B37: PSA peptide … (position 118, 11 amino acids) (peptide)
peptide: MLLRLSEPAEL
modifications: not checked
- binding affinity ratio (IC50 of standard peptide / IC50 of test peptide) [1]: 0.14

B38: PSA peptide …, position 35, 11 amino acids (peptide)
peptide: QVLVASRGRAV
modifications: not checked
- binding affinity ratio (ratio to standard peptide) [6]: 0.0001

B39: PSM peptide …, position 578, 10 amino acids (peptide)
peptide: QVRGGMVFEL
modifications: not checked
- binding affinity ratio (ratio to standard peptide) [6]: 0.0001

B40: Kallikrein (hK2) peptide … (position 54, 10 amino acids) (peptide)
peptide: LVHPQWVLTA
modifications: not checked
- binding affinity ratio (IC50 of standard peptide / IC50 of test peptide) [1]: 0.0001

B41: Kallikrein 129 … (peptide)
peptide: PAKITDVVKV
modifications: not checked
- binding affinity ratio (IC50 of standard peptide / IC50 of test peptide) [3, 9]: 0.0006
- binding affinity ratio (IC50 of standard peptide / IC50 of test peptide) [5, 9]: 0.01

B42: PSM peptide … (position 473, 9 amino acids) (peptide)
peptide: LVHNLTKEL
modifications: not checked
- binding affinity ratio (IC50 of standard peptide / IC50 of test peptide) [1]: 0.0001

B43: … (PSM, position 646, 10 amino acids) (peptide)
peptide: FSERLQDFDK
modifications: not checked
- binding affinity ratio (IC50 of standard peptide / IC50 of test peptide) [8]: 0.0003

B44: PSM peptide …, position 218, 9 amino acids (peptide)
peptide: QLAGAKGVI
modifications: not checked
- binding affinity ratio (ratio to standard peptide) [6]: 0.0001

B45: … (PSA, position 171, 11 amino acids) (peptide)
peptide: DLHVISNDVCA
modifications: not checked
- binding affinity ratio [7]: 0.0001

B46: PSA peptide LVHPQWVL (position 50, 8 amino acids) (peptide)
peptide: LVHPQWVL
modifications: not checked
- binding affinity ratio (IC50 of standard peptide / IC50 of test peptide) [1]: 0.0001

B47: Kallikrein (hK2) peptide …, position 72, 9 amino acids (peptide)
peptide: QVWLGRHNL
modifications: not checked
- binding affinity ratio (ratio to standard peptide) [6]: 0.0001

B48: Kallikrein (hK2) peptide … (position 54, 11 amino acids) (peptide)
peptide: LVHPQWVLTAA
modifications: not checked
- binding affinity ratio (IC50 of standard peptide / IC50 of test peptide) [1]: 0.0001

B49: PSA 239 peptide … (peptide)
peptide: YTKVVHYRKWI
modifications: not checked
- binding affinity ratio (IC50 of the standard peptide / IC50 of the test peptide) [2]: 0.0001
- binding affinity ratio (IC50 of the standard peptide / IC50 of the test peptide) [3]: -0.0001
- binding affinity ratio (IC50 of the standard peptide / IC50 of the test peptide) [5]: -0.0001

B50: Kallikrein (hK2) peptide …, position 142, 9 amino acids (peptide)
peptide: PTQEPALGT
modifications: not checked
- binding affinity ratio (ratio to standard peptide) [6]: 0.0001

B51: PSM peptide …, position 740, 10 amino acids (peptide)
peptide: QAAAETLSEV
modifications: not checked
- binding affinity ratio (ratio to standard peptide) [6]: 0.0006

B52: PSA peptide … (position 50, 10 amino acids) (peptide)
peptide: LVHPQWVLTA
modifications: not checked
- binding affinity ratio (IC50 of standard peptide / IC50 of test peptide) [1]: 0.0001

B53: PSM peptide …, position 218, 10 amino acids (peptide)
peptide: QLAGAKGVIL
modifications: not checked
- binding affinity ratio (ratio to standard peptide) [6]: 0.0006

B54: Kallikrein (hK2) peptide … (position 4, 9 amino acids) (peptide)
peptide: LVLSIALSV
modifications: not checked
- binding affinity ratio (IC50 of standard peptide / IC50 of test peptide) [1, 9]: 0.002

B55: PSA 149 peptide YASGWGSI (peptide)
peptide: YASGWGSI
modifications: not checked
- binding affinity ratio (IC50 of the standard peptide / IC50 of the test peptide) [2]: -0.0001
- binding affinity ratio (IC50 of the standard peptide / IC50 of the test peptide) [3]: 0.0003
- binding affinity ratio (IC50 of the standard peptide / IC50 of the test peptide) [4]: 0.0003
- binding affinity ratio (IC50 of the standard peptide / IC50 of the test peptide) [5]: 0.0009
